Target: ZEBOV-VP40蛋白C端的特异的抗原肽13肽 […] (扎伊尔型埃博拉病毒 (Zaire ebolavirus))
Test: indirect ELISA on coated VP40 peptide (hybridoma screening, P/N≥2.1 positive)

B1: 抗埃博拉病毒VP40蛋白单克隆抗体F1B4 (antibody, V domains shown)
VH: EVRLQQSGPELGKPGASVKISCKTSGYVFTEYTIHWMKQSHGKSLEWIGNIYPKNGGTAYSQKFKGRATLSADKSSRTAYIELRSLTSEDSAVYYCARDNYGFDCWGQGTTLTVSS
VL: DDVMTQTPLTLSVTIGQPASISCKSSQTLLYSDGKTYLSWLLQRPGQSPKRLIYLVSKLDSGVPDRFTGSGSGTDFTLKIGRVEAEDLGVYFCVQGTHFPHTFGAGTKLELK
  binding result: binds

Reference: patent CN108424448A (UNIV ZHEJIANG, dated 2018)
